The text below walks through data of PMC5444840.

Like-named read-outs stand apart in the source and are kept apart here.

Holding throughout (assay): SPR; multi-cycle kinetics, Biacore X-100: rSgC or IgD amine-coupled on a CM4 chip; different chemokine concentrations at 30 ul/min, 180 s contact, 600 s dissociation, HBS-EP pH 7.4; global fit to a 1:1 Langmuir model
Assay [1] deals with VZV gC IgD (amino acids P140 to V531, with the predicted immunoglobulin-like domains) (Varicella zoster virus, Dumas strain).
Sequence of VZV gC IgD (amino acids P140 to V531, with the predicted immunoglobulin-like domains) (Varicella zoster virus, Dumas strain) (P09256 171-562 limits assumed): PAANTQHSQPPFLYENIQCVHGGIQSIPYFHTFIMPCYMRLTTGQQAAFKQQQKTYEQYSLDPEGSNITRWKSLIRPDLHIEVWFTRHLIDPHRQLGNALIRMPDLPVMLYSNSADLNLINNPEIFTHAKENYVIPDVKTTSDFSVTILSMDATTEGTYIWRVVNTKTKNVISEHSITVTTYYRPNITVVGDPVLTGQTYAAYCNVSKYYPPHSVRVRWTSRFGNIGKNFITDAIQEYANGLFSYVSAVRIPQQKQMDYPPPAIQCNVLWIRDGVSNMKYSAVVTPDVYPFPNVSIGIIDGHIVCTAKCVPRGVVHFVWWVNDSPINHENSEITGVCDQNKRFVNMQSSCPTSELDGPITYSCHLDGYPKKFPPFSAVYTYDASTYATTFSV
Assay [2] deals with recombinant soluble VZV glycoprotein C ectodomain (VZV rSgC) (Varicella zoster virus, Dumas strain).
Sequence of recombinant soluble VZV glycoprotein C ectodomain (VZV rSgC) (Varicella zoster virus, Dumas strain) (P09256 54-562 limits assumed): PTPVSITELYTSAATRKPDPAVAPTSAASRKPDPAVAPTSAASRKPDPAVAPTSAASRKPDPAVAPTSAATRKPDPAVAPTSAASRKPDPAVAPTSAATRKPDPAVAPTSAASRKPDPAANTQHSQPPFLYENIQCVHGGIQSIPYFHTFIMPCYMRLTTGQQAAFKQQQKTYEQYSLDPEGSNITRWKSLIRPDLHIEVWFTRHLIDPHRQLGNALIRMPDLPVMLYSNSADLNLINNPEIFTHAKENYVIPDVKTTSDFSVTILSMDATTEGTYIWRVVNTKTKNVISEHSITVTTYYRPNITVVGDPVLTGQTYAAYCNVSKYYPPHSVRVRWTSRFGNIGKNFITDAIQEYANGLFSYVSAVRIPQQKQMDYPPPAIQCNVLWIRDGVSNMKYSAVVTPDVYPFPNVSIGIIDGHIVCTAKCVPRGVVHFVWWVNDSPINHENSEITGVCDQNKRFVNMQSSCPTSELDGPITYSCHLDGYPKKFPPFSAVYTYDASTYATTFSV
The target of assay [3] is VZV gC IgD (amino acids P140 to V531, with the predicted immunoglobulin-like domains) (Varicella zoster virus, Dumas strain). The source holds these as a separate data set.
Assay [4] addresses recombinant soluble VZV glycoprotein C ectodomain (VZV rSgC) (Varicella zoster virus, Dumas strain). The source holds these as a separate data set.

What is called Kd is the free concentration of one partner at which half of the binding sites on the other are occupied at equilibrium, for simple one-to-one binding. For orientation: koff means the first-order rate constant of dissociation. For orientation: kon means the rate constant with which the complex forms. Regarding “CCL2 (from UniProt P13500 24-99) (ligand)”, in assay [1], the Kd was 6.05 nM, the koff was 0.0013 s⁻¹, the kon is 214000 M⁻¹ s⁻¹ and the t(1/2) was 8.91 min. In assay [2], the Kd is 5.84 nM, the koff came to 0.00101 s⁻¹, the kon is 173000 M⁻¹ s⁻¹ and the t(1/2) came out at 11.4 min.

In the case of “CCL19 (from UniProt Q99731 22-98) (ligand)”, in assay [1], the Kd was 0.118 nM, the koff was 0.00161 s⁻¹, the kon is 1.37e+07 M⁻¹ s⁻¹ and the t(1/2) is 7.18 min. In assay [2], the Kd was found to be 0.138 nM, the koff amounted to 0.00212 s⁻¹, the kon amounted to 1.54e+07 M⁻¹ s⁻¹ and the t(1/2) is 5.46 min.

With “CCL13 (from UniProt Q99616 17-98) (ligand)”, in assay [1], the Kd was 0.299 nM, the koff is 0.00389 s⁻¹, the kon was 1.3e+07 M⁻¹ s⁻¹ and the t(1/2) was 2.97 min. In assay [2], the Kd was found to be 0.176 nM, the koff is 0.00184 s⁻¹, the kon worked out at 1.04e+07 M⁻¹ s⁻¹ and the t(1/2) stood at 6.29 min.

B1: CXCL13 (ligand)
chain: VLEVYYTSLRCRCVQESSVFIPRRFIDRIQILPRGNGCPRKEIIVWKKNKSIVCVDPQAEWIQRMMEVLRKRSSSTLPVPVFKRKIP
As to B1, in assay [3], the Kd is 0.567 nM, the koff was 0.0015 s⁻¹, the kon is 2.64e+06 M⁻¹ s⁻¹ and the t(1/2) is 7.72 min. Further, in assay [4], the Kd was found to be 0.422 nM, the koff stood at 0.00251 s⁻¹, the kon was determined as 5.94e+06 M⁻¹ s⁻¹ and the t(1/2) worked out at 4.61 min.
